This note sets out measurements from article PMC11143371 (Nature Communications, 2024).

This assay deals with T1, RV3 preF OnlyEcto (Human respirovirus 3 (HPIV3), strain …, stabilised).
T1 construct: also called RV3 preF lead candidate; source: Expi293F, transfected, purified (Capto Q Impress, SEC)
Put plainly: BLI; kinetic Octet; […] (0-900 s), […] (900-1800 s). To be noted: both partners purified.

B1: single-domain antibody (sdAb) 4C06 (VHH)
VHH: EVQLVESGGGLVQPGGSLRLSCSASGSLSTIKALGWYRRAPGRERELVASITSAGETNYADSAKGRFTVSTDNAKNTVDLRMNSLKPEDTAVYYCYAESFVLNIYWGQGTQVTVSS
notes: also called VHH 4C06
As to B1, the binding result was “binds”.
